From the DeepSol protein solubility set come the findings set out here.

This data set can be described thus: soluble on expression in E. coli; label from the status in PepcDB or PDB records.
Take “MANRLRTGIDVLDRKLDGGIPAGSIVVLSAQPASQAELFLYELTATRGTLWLSLDRTAESVIASIEQTPANTGDPTVRHISGEAPLDNAGKLVSALPETSNLIVDPLDVLEAQEPHSRFRAFMNDLQNHIVNTGSLAIVHCLDGRDVPPLRDTTEHFADVVFQLNTTTNGDEVENRLAIPKFRGGRAPTDIIKLNLVEEVSIDTSRDIALEHHHHHH”: the “soluble on expression in E. coli” value is given as “not soluble”.
Under “MANVESLYKELTAEWSKRPPNTVKCGQLLDQLKVALVKMAFLPTDGNDAQSSKKQLILARSVLEVAVEHSVLSKDLLAFERYMAQLKCYYYDYAKIIGESESKYKLLGLNLLYLLSGNRVSDFHTELELLSVDVIQHNQFIRPILALEQYIMEGRYNKIFQAKSTVPVEVYSYFMDLLLETVRDEIGACIEKSYDKISAKDAAKRLNLRVPDEIKAFGAKRQWKLEASGDYSFTDRSVKPKELLPSEELAEQVLSYARDLEMIV” stands “not soluble”.
Under “MAPGTKKKSDMAKFTFYKDRLMTFKNFEYDRDPDAKCTSQAVAQAGFYCTGPQSGKCAFCNKELDFDPEDDPWYEHTKRDEPCEFVRIGKLDDSELTINDTVRLSQTAMIMTKLFEHEMMINNLSNHSSSDALFDQLKKVPNTASTTKSNSRRGK” stands “not soluble”.
Under “MAPHGDGLSDIEEPEVDAQSEILRPISSVVFVIAMQAEALPLVNKFGLSETTDSPLGKGLPWVLYHGVHKDLRINVVCPGRDAALGIDSVGTVPASLITFASIQALKPDIIINAGTCGGFKVKGANIGDVFLVSDVVFHDRRIPIPMFDLYGVGLRQAFSTPNLLKELNLKIGRLSTGDSLDMSTQDETLIIANDATLKDMEGAAVAYVADLLKIPVVFLKAVTDLVDGDKPTAEEFLQNLTVVTAALEGTATKVINFINGRNLSDL” stands “soluble”; under “MAPITVGDVVPDGTISFFDENDQLQTVSVHSIAAADGFLDFDLRIGVFGFSEVSMSHVPGFIGKAEELKSKGIDEIICFSVNDPFVMKAWGKTYQENKHVKFVADGSGEYTHLLGLELDLKDKGLGIRSRRFALLLDNLKVTVANVENGGEFTVSSAEDILKALLEHHHHHH”, “not soluble”.
On to “MAPKVFYISDGTAITAEVFGHAVLSQFPLEFESLTIPFVETLAKAENVKRQINDCFITTGERPLVFHSIVKPEIRDIIYSSEGLDYDFLNTFVAPLEQHLGVSASPVLHRTHGKANQGYEARIDAINFAMDNDDGQTMKHMDQADLILLGVSRCGKTPSSLYLSMQFGIKAANYPFTEDDMDNLKLPEALKRNKKKLFGLTIDPVRLHEIRQSRMENSRYSSLKQCRLEVKEVEMMFKRERIPYIDTTNHSVEEIATKILDVTGLERHMFMAGDPLEHHHHHH”, for which the “soluble on expression in E. coli” value is given as “soluble”.
For “MAPPTTIRTRDQALAPLATLDSQTNCRLKELVQWECQFKGAEYVCSPFKRLFEHCIAPDKSATNYEVTDTYTNS”, the “soluble on expression in E. coli” value is “not soluble”.
Under “MAPSTPLLTVRGSEGLYMVNGPPHFTESTVFPRESGKNCKVCIFSKDGTLFAWGNGEKVNIISVTNKGLLHSFDLLKAVCLEFSPKNTVLATWQPYTTSKDGTAGIPNLQLYDVKTGTCLKSFIQKKMQNWCPSWSEDETLCARNVNNEVHFFENNNFNTIANKLHLQKINDFVLSPGPQPYKVAVYVPGSKGAPSFVRLYQYPNFAGPHAALANKSFFKADKVTMLWNKKATAVLVIASTDVDKTGASYYGEQTLHYIATNGESAVVQLPKNGPIYDVVWNSSSTEFCAVYGFMPAKATIFNLKCDPVFDFGTGPRNAAYYSPHGHILVLAGFGNLRGQMEVWDVKNYKLISKPVASDSTYFAWCPDGEHILTATCAPRLRVNNGYKIWHYTGSILHKYDVPSNAELWQVSWQPFLDGIFPAKTITYQAVPSEVPNEEPKVATAYRPPALRNKPITNSKLHEEEPPQNMKPQSGNDKPLSKTALKNQRKHEAKKAAKQEARSDKSPDLAPTPAPQSTPRNTVSQSISGDPEIDKKIKNLKKKLKAIEQLKEQAATGKQLEKNQLEKIQKETALLQELEDLKLGI” stands “soluble”; under “MAPTSSIEIVLDKTTASVGEIVTASINIKNITNFSGCQLNMKYDPAVLQPVTSSGVAYTKSTMPGAGTILNSDFNLRQVADNDLEKGILNFSKAYVSLDDYRTAAAPEQTGTVAVVKFKVLKEETSSISFEDTTSVPNAIDGTVLFDWNGDRIQSGYSVIQPAVINLDMTKASYITMGYDKNAAEVGEIIKATVKINKITNFSGYQVNIKYDPTVLQAVNPKTGVAYTNSSLPTSGELLVSEDYGPIVQGVHKISEGILNLSRSYTALEVYRASESPEETGTLAVVGFKVLQKKATTVVFEDSETMPNGITGTTLFNWYGNRIQSGYFVIQPGEINSAPIATLEHHHHHH”, “soluble”.
Under “MAQEVIKIRGGRTLNGEVNISGAKNSAVAIIPATLLAQGHVKLEGLPQISDVKTLVSLLEDLNIKASLNGTELEVDTTEIQNAALPNNKVESLRASYYMMGAMLGRFKKCVIGLPGGCPLGPRPIDQHIKGFKALGAEIDESSTTSMKIEAKELKGAHIFLDMVSVGATINIMLAAVYATGQTVIENAAKEPEVVDVANFLTSMGANIKGAGTSTIKINGVKELHGSEYQVIPDRIEAGTYMCIAAACGENVILNNIVPKHVETLTAKFSELGVNVDVRDERIRINNNAPYQFVDIKTLVYPGFATDLQQPITPLLFMANGPSFVTDTIYPERFKHVEELKRMGANIEVDEGTATIKPSTLHGAEVYASDLRAGACLIIAGLIAEGVTTIYNVKHIYRGYTDIVEHLKALGADIWTETV” stands “not soluble”; under “MAQKISINRGLGLGMAQLGAFARMGMMINVSAMGPQDGHANGGVGEGGIEMSRKSTWRSENDEIKTRKSTAFEPDLDFDMIDFRQPSGSSQYLYGFGFDNNAFGLADGQSDEDSVFM”, “not soluble”; under “MAQLENQILETLKPLIDANTGKSYVAAKNVKNLKCGDAEISLDVVLAYPAKSQFDAVRQQFEAALAPLAEGRAIKIAVSAQIVSHSAQRGVPLLPGVKNVIAVASGKGGVGKSTTAANLALALADEGARVGLLDADIYGPSQPLMMGLQGQRPETADGKLTPLSNHGIQTMSIGYLVDADQAMVWRGPMVSQALQQLLNDTRWDDLDYLVIDMPPGTGDVQLTLSQKVPVTGALIVTTPQDIALLDARKGVTMFQKVGVPILGLVENMAIHVCSNCGHAEHIFGEGGAVKMAQDFGVELLGSLPLDLAIRQAVDEGRPSVAADPSGKPAELYRAIARRVAVKVGEKAQDFSGKFPKIVIQNNLEHHHHHH”, “not soluble”.
On to “MAQLQKDAQENECRELIEVPSGHDYQIRQYIEKYPQFLWKYSEGVTIPGYVLNIAEQLNSEYGNVENIPIDLYPCEYYRIVEHSMPTDIGLQPKRFDRIKENLTEKLQQVFRHQDADLYMPENHLIPTVACAVCIQGTWYRGKIENVPPRGIWMYVNLIDAGMSRQVMKSDVRRLPLAFGHYPPMVVKATIRGAVIHRMDRGKVDQFQNMIRNIDYLARCQITTCTEPFQIVLCHPKYEFMNMCSFLLAPRRGQPSQEGVWIPREIAKQLERENGFERNDYDDSGADSDFLEDEEEEDAGWDYGEGDDYAYLRSFPPACKIFRMSEDEFMVERIENERIIYLTSKDMLERRREAEEYLTKEKESLESLPDVWMAYGTSCSVFHQGTMKRASCCGEEGSTIQLLLIDYGISIEVSKSDVYNIPNKDEVNMEPFVTLVSIKSFPFIHYSRVKILQELLPRGTPVKFHRDRKCKEIPTKGEIYQMNGTSVEQSVSEIVSSCQLDLECNSLLPSRIANNELTQLLAYCINYEFMYKSPNVVIYKKSKRVKSHF”, for which the “soluble on expression in E. coli” value is “not soluble”.
Under “MAQTTINEQTLVNEQRLLAYDCFQNTNKVGLLSALEYLDFVNHLVKSNQIKYLLVPSASQTVYQHVFFDHFRFLSFDNNLLSGFGLAIRLHKEAETVFMLVEKTKQTETEIKKLLEAVKQFSGLKLVVLLVNSPFENKRTKLSYEIVKIIKKHGYQYKRYCRKNFEKKFFNTWNHQKRKQKTKNNLFFVELNSQFAFGTSMANSNSFDLSFTSFKERFNTENNLDIDVHFNVPHKYLLKNLESIKHHLQIDNNTIWKQAFINFAGQLLLYFENLQVFAQEASTLQVNAIVIKQDAYFIVEVMKGYNYDNNCICLLEANKDQNVGLTTASTNTLIGDIKQYEPCFFIEK” stands “soluble”; under “MARIRARGSACPSQCSCSGTTVDCSGKSLASVPTGIPTTTQVLYLYDNQITKLEPGVFDRLTQLTRLDLDNNQLTVLPAGVFDKLTQLTQLSLNDNQLKSIPRGAFDNLKSLTHIWLLNNPWDCACSDILYLSRWISQHPGLVFGYLNLDPDSARCSGTNTPVRAVTEASTSPSKCPG”, “soluble”.
Regarding “MARKTKEDTQATREGILDAAEACFHEHGVARTTLEMIGARAGYTRGAVYWHFKNKSEVLAAIVERVHLPFMQELERTSTDQRDTPVHDLRAVMIHSFIELSEDERLRKTMEIMLRSDASANTRVLTEMQQAGFRDALDRMERALRRARDLGQLREGADPKIAARMLHATVLGVLHGAMVEPELMDLKRDGMLALDMTLAAYVKDGVFVPGTVPEPLPEA”, the “soluble on expression in E. coli” value is “soluble”.
Under “MARMYRALTRDIEVTVDPYYLEEQSDPDDDRYVWGYKVVIANNSDVPVKLVNRYWHITDQNGQVDEVYGPGVVGEQPQLKPGDSYEYSSGCPLDTPSGLMFGHYEMETENGEVFNVTIPAFSLDSPGLMRVLNAAALEHHHHHH” stands “soluble”; under “MARPLEQAVAAIVCTFQEYAGRCGDKYKLCQAELKELLQKELATWTPTEFRECDYNKFMSVLDTNKDCEVDFVEYVRSLACLCLYCHEYFKDCPSEPPCSQ”, “soluble”.
Consider “MARYYVLDLSEDFRRELRETLAEMVNPVEVHVFLSKSGCETCEDTLRLMKLFEEESPTRNGGKLLKLNVYYRESDSDKFSEFKVERVPTVAFLGGEVRWTGIPAGEEIRALVEVIMRLSEDESGLEDATKEALKSLKGRVHIETIITPSCPYCPYAVLLAHMFAYEAWKQGNPVILSEAVEAYENPDIADKYGVMSVPSIAINGYLVFVGVPYEEDFLDYVKSAAEGRLTVKGPIRAGEAEEL”, for which the “soluble on expression in E. coli” value is “soluble”.
Under “MASEVPQVVSLDPTSIPIEYNTPIHDIKVQVYDIKGGCNVEEGLTIFLVNNPGKENGPVKISSKVNDKQVSEFLKDENMEKFNVKLGTSKHFYMFNDNKNSVAVGYVGCGSVADLSEADMKRVVLSLVTMLHDNKLSKLTVVFEINVDKNLFRFFLETLFYEYMTDERFKSTDKNVNMEYIKHLGVYINNADTYKEEVEKARVYYFGTYYASQLIAAPSNYCNPVSLSNAAVELAQKLNLEYKILGVKELEELKMGAYLSVGKGSMYPNKFIHLTYKSKGDVKKKIALVGKGITFDSGGYNLKAAPGSMIDLMKFDMSGCAAVLGCAYCVGTLKPENVEIHFLSAVCENMVSKNSYRPGDIITASNGKTIEVGNTDAEGRLTLADALVYAEKLGVDYIVDIATLTGAMLYSLGTSYAGVFGNNEELINKILQSSKTSNEPVWWLPIINEYRATLNSKYADINQISSSVKASSIVASLFLKEFVQNTAWAHIDIAGVSWNFKARKPKGFGVRLLTEFVLNDALHHHHHH” stands “soluble”.
Take “MASGDLVHYVITVMLHEDTLTEINELNNYLTRDGFLLTMTDDEGNIHELGTNTFGLISTQSEEEIRELVSGLTQSATGKDPEITITTWEEWNSNRK”: the “soluble on expression in E. coli” value is “not soluble”.
